The source of these data is the RNAGym collection of RNA variant scans (doi:10.7554/elife.90254).

The chains are these.
B1: OR4K15 (parent)
chain: GUUAACGGUCAUAGGCCAUGGAAACUAGGAGCACCAUUUCGCUGCCAGUGAAGAAAUGAACAAAGAAAAUCUGGGCCAGGCAGGCAUCAAAAGAAAUAGUCUUGCGCUCAACCAGAAAGUCUGUAAUCAUUUUAAGGGUA

Variants of B1 are the subject of this data set. Nature of the data set: self-cleavage, relative activity (ratio to wild type); higher = more cleavage; in vitro, sequencing; the parent is a self-cleaving ribozyme.
As to G53U A69G, the self-cleavage was determined as 0.57.

Take A52C A129G: the self-cleavage is 0.62.

Turning to A51G G74U, the self-cleavage came out at 0.37.

As to A52U A64G, the self-cleavage was determined as 1.71. Consider A51U, for which the self-cleavage was 1.5. With A52G A125G, the self-cleavage came to 0.37.

Consider A52G A125U, for which the self-cleavage worked out at 0.86.

Regarding A52G U97G, the self-cleavage was found to be 1.31. As to A52G U97C, the self-cleavage was 1.07. A52G U97A: the self-cleavage was 1.33.

On to A54U A116G, for which the self-cleavage was 0.83. For A52G U72C, the self-cleavage was 0.27. A52G A64C: the self-cleavage worked out at 2.64. The value for A52G A64U was 0.82; that for A52G A64G was 0.9. Regarding A54G U130A, the self-cleavage was determined as 1.11. Next, A54G U130C: 0.76; A52U G79A: 0.37.

Regarding A51G G65A, the self-cleavage turned out to be 1.12. Regarding A54C A60U, the self-cleavage was 1.33. The value for A54G A129C was 0.76. Next, A54G A129G: 0.58; A52U A59G: 1.48; A54C U72A: 0.43. For A52U A62G, the self-cleavage amounted to 1.23.

As to A52G A92G, the self-cleavage was 1.34. The value for A52G A92U was 1.52; that for A52G G106A was 0.01; that for A52G G106C was 0.02.

As for A51U A66G, the self-cleavage is 2.03.

Take G53A U130C: the self-cleavage worked out at 1.96. On to A51G A114G, for which the self-cleavage was 1.1. Next, A54G A96U: 2.04. Next, G53U A118G: 1.67; A54G A90G: 0.86; A54G U100A: 0.57. As for A54G A66G, the self-cleavage is 1.51. For the variant A54U U127C, the self-cleavage amounted to 0.18. As for A52C G75U, the self-cleavage stood at 0.33. Consider A52G G80U, for which the self-cleavage was 0.12. The value for A51U A67G was 1.23. As to A51U A67U, the self-cleavage was 2.12.

Consider A52U U132C, for which the self-cleavage is 1.06. Take A54G U139C: the self-cleavage stood at 1.68.

With A52G U103A, the self-cleavage worked out at 0.59.

Regarding A51U A59G, the self-cleavage was determined as 0.95.

A52G G138U: the self-cleavage came to 2.54. As for A54U A134G, the self-cleavage was found to be 1.32. Next, G53U A111G: 0.04; A52G U87A: 1.23. Consider A52G U87C, for which the self-cleavage stood at 1.35. For the variant A54U G115U, the self-cleavage was determined as 0.03. Next, A51G A95G: 1.7. For the variant A54G A86U, the self-cleavage came to 1.71.

As to A52G A95G, the self-cleavage was 2.12. Next, A52G A95U: 1.37; A51G G138C: 1.66; A51U U100C: 2.13.

Take A54G A140G: the self-cleavage was 2.22. Regarding A54G G136U, the self-cleavage came out at 2.55. For A51U A78U, the self-cleavage is 0.36.

Turning to A51G A118G, the self-cleavage is 1.29. Take A52G U130C: the self-cleavage amounted to 0.75. With A52G U130A, the self-cleavage was found to be 1.08. Turning to A52G U130G, the self-cleavage stood at 0.81. Take A52G C88A: the self-cleavage was 1.78.

A52G U139C: the self-cleavage is 2.03. With A52G U139A, the self-cleavage was determined as 1.5. On to A52G U139G, for which the self-cleavage is 1.6.

Take A51G U133G: the self-cleavage came to 1.24.

Consider A51G U133A, for which the self-cleavage is 1.15.

Turning to A51U C76U, the self-cleavage amounted to 0.33.

For the variant A51G A129C, the self-cleavage was 0.98. On to A51G A129G, for which the self-cleavage turned out to be 1.11.

A51G C61G: the self-cleavage turned out to be 0.99.

As for A51G U120G, the self-cleavage came out at 2.37. With A52G A118U, the self-cleavage is 0.59. On to A51U A82G, for which the self-cleavage stood at 0.68. On to A52U A54G, for which the self-cleavage was 1.25. As for A54G C112G, the self-cleavage was 0.01.

A54G A94C: the self-cleavage worked out at 1.32. In the case of A54G A94G, the self-cleavage worked out at 1.2. The value for A54U U103G was 0.04; that for A54U U103C was 1.26; that for A51U U139A was 1.14. For the variant A52G A56G, the self-cleavage was found to be 0.76. As to A51G G83A, the self-cleavage was determined as 1.42.

Turning to A51G G83U, the self-cleavage is 0.7. Next, A51U U131A: 1.32; A51U U127C: 0.76; A51U U127A: 1.75.

Regarding A51G U131C, the self-cleavage came out at 1.25. Turning to A51G U131G, the self-cleavage was 1.08. As to A51U U120C, the self-cleavage turned out to be 0.47. With A52U A82G, the self-cleavage was found to be 1.09. As for A52U A82U, the self-cleavage is 0.2. Next, A52G A86U: 1.33; A52G A86C: 0.77; A54G U132A: 1.73. Regarding A54G A135U, the self-cleavage worked out at 0.73.

Consider A54G A135G, for which the self-cleavage is 1.13. As to A51G A98G, the self-cleavage was found to be 0.29. Take A54G A98U: the self-cleavage came out at 2.61. As for A54G A56G, the self-cleavage is 1.01.

With A54G A56C, the self-cleavage turned out to be 1.4. The value for A52G U122C was 1.45; that for A52G C128A was 0.64. Regarding A54C A95G, the self-cleavage came out at 2.18. Take A54G A116U: the self-cleavage is 0.27.

For the variant A54G A116G, the self-cleavage is 0.75. Next, A51G U122A: 1.85; A51U A62G: 1.48; A51U A62U: 1.15.

For G53A A90G, the self-cleavage came out at 0.74.

On to A51G U87G, for which the self-cleavage stood at 0.43. Turning to G53A A118C, the self-cleavage was 0.99. With A52U A91G, the self-cleavage was 1.13. Regarding A52C A64G, the self-cleavage was determined as 1.38.

On to A52G G104A, for which the self-cleavage is 0.04. Next, A54G C81U: 0.19; A51U G58U: 1.45. As to A54G A63G, the self-cleavage is 1.55. As to A54G A82G, the self-cleavage came to 0.61. For A54G A82U, the self-cleavage came out at 0.26.

With A52G U57A, the self-cleavage was found to be 1.31. As to A52U U122A, the self-cleavage came out at 0.96. As for A52C A60G, the self-cleavage came to 1.

Regarding A51U A125G, the self-cleavage is 0.42. Regarding A51U A125U, the self-cleavage worked out at 1.64. Consider A52G A111C, for which the self-cleavage is 0. Next, A52G A111G: 0.03; A52U U103C: 1.36. For A51G C76A, the self-cleavage stood at 0.07.

Regarding G53A C128A, the self-cleavage came to 0.93. A54U A69G: the self-cleavage was determined as 0.53. Take A54U U100A: the self-cleavage came to 0.59.

A54G A59U: the self-cleavage is 0.71. Take A51U G83A: the self-cleavage came out at 2.1. Regarding A52C A91G, the self-cleavage turned out to be 1.96. On to A54U U102C, for which the self-cleavage is 1.59. Consider A52C A117G, for which the self-cleavage was 1.22. With A54G G75U, the self-cleavage was found to be 0.12. For A52C U108C, the self-cleavage stood at 0.03.

In the case of A52U G74A, the self-cleavage came to 0.16. As for A51G C105U, the self-cleavage was found to be 0.12. For A54G C128U, the self-cleavage was found to be 1.08. For the variant G53U U122C, the self-cleavage was found to be 2. The value for A52C A140G was 1.87. Turning to G53A A60G, the self-cleavage worked out at 1.53. As for A52C U131C, the self-cleavage stood at 1.53. With A51G G106A, the self-cleavage is 0.

In the case of A51G G136A, the self-cleavage turned out to be 2. A52C A118G: the self-cleavage came to 0.72. Regarding A54U A82U, the self-cleavage was determined as 0.24. The value for A54G G123A was 1.14. The value for A51U G74U was 0.25. On to A52U A63G, for which the self-cleavage came to 1.73. As for A51G U124G, the self-cleavage was 1.05. Consider A52G A140G, for which the self-cleavage was 1.63. Next, A52G A140U: 1.15; A52G A55C: 1.29. On to A52G A55U, for which the self-cleavage was 1.51. A52G A110G: the self-cleavage amounted to 0.17. The value for A54G A62G was 0.92; that for A54G A62U was 1.14; that for A51U A64G was 1.28.

For the variant A52U U124C, the self-cleavage stood at 0.48.
